Experimental data from the MegaScale stability set (Tsuboyama et al. 2023).

B1: EHEE_rd2_0196 (parent)
chain: TETRTFDSEEEAKKAQKEAEKQGRTVTITRRDDRWEVRFD

Variants of: B1
Assay: folding stability dG (cDNA display proteolysis); higher = more stable
Conditions: PBS, room temperature

Folding stability dG [kcal/mol]: each site, then its substitutions
S8: M 1.63 | P 0.072 | L 2.02 | Y 1.64 | A 1.68 | N 2.79 | R 2.12 | F 1.8 | G 1.56 | I 1.77 | D 2.27 | T 3.37 | W 1.13 | K 2.11 | Q 1.82 | E 1.66 | H 2.12 | V 1.78
K14: P 0.356 | C 3.46 | N 3.05 | A 3.29 | S 2.89 | F 3.02 | H 3.05 | M 3.23 | Y 2.95 | E 3.15 | W 3.02 | Q 3.23 | T 2.9 | G 2.5 | I 3.07 | L 3.23 | D 2.9 | V 2.94 | R 3.02
Q16: K 3.04 | C 2.99 | H 2.07 | F 2.97 | D 0.725 | Y 2.83 | L 2.89 | T 2.27 | P 0.25 | N 0.943 | W 2.53 | R 2.63 | I 2.97 | V 3.18 | G 2.99 | M 3.32 | A 3.91 | S 2.69 | E 2.45
A12: K 0.241 | S 1.06 | D 0.06 | W 0.806 | E 0.203 | N 0.221 | R 0.086 | Y 1.08 | M 1.9 | H 0.139 | Q 0.157 | V 1.98 | F 1.05 | L 1.49 | I 0.724 | P 0.214 | G 0.827 | T 1.04
F6: V 1.65 | T 0.546 | Y 3.19 | H 0.637 | L 1.22 | I 0.565 | D 0.02 | G 0.049 | Q 0.251 | A 0.553 | P -0.092 | S 0.282 | N 0.174 | W 1.28 | R 0.142 | K 0.23 | M 1.24 | E 0.25
A15: M 2.79 | R 1.46 | E 2.24 | Y 3.95 | H 2.69 | D 1.13 | I 2.69 | T 2.04 | W 3.37 | L 2.76 | F 4.24 | V 2.91 | S 2.18 | P 0.28 | K 1.45 | N 1.58 | Q 2.08 | G 1.18
E20: D 2 | T 2.52 | M 3.06 | L 3.14 | A 2.88 | R 2.46 | V 2.67 | W 2.94 | Y 2.56 | C 2.81 | P 0.742 | K 2.4 | I 2.85 | F 2.77 | N 2.53 | H 2.64 | Q 2.86 | S 2.47 | G 2.13
A19: G 2.75 | Q 2.13 | R 1.21 | Y 3.25 | K 1.33 | W 3.05 | P 0.448 | D 1.41 | L 3.39 | V 1.78 | F 3.12 | M 3.04 | N 1.72 | S 1.97 | H 2.19 | E 2.28 | I 2.47 | T 1.27
E18: F 2.32 | N 2.46 | H 2.55 | K 2.36 | W 2.63 | V 2.58 | P 0.538 | L 2.79 | C 3 | I 2.74 | A 2.79 | D 2.87 | M 2.81 | T 2.42 | G 1.75 | Q 2.65 | Y 2.31 | R 2.46 | S 2.38
Q22: G 2.58 | I 2.83 | H 2.99 | F 2.79 | C 3.26 | L 3.19 | K 2.73 | A 3.08 | D 2.88 | E 3.06
R4: L 3.43 | M 3.24 | P 1.25 | V 2.99 | K 2.9 | Y 3.12 | W 3.49 | Q 2.93 | N 2.11 | T 2.54 | S 2.3
E9: H 2.28 | I 2.73 | D 1.47 | G 1.03 | S 1.42 | A 2.01 | F 3.42 | Q 2.18 | L 3.33 | T 0.823 | Y 3.58 | M 2.38 | P 1.92 | V 2.25 | W 3.38 | K 1.66 | N 1.26 | R 1.49
T5: V 3.37 | H 2.71 | Q 2.63 | K 2.09 | P 1.24 | C 2.5 | D 2.04 | F 3.75 | L 3.46 | G 1.73 | M 3.42 | Y 3.96 | R 2.35 | W 4.03 | E 2.57 | S 2.81 | N 2.3 | A 2.43 | I 3.42
K21: P 1.11 | V 2.72 | G 3.06 | Y 2.64 | F 2.66 | L 3.22 | I 2.82 | N 2.96 | A 3.41 | S 3.19 | Q 3.11 | T 2.85 | M 3.11 | W 2.55 | D 3.08 | H 2.82 | R 3.11 | E 3.18
K13: T 2.75 | M 3.18 | C 3.06 | W 2.95 | S 2.45 | D 2.09 | Q 2.97 | P 0.105 | G 2.02 | L 3.5 | F 3.23 | N 2.64 | R 3.13 | A 2.54 | Y 3.29 | I 3.37 | H 2.72 | V 3.2 | E 2.63
K17: T 2.91 | H 2.98 | F 3.13 | L 3.25 | P 0.527 | W 3.18 | I 3.22 | A 3.25 | S 3.02 | N 2.82 | Y 3.23 | D 2.92 | G 2.67 | E 3.17 | M 3.21 | V 3.15 | R 3.13 | Q 3.08
E11: S 2.18 | W 1.28 | N 1.96 | Y 1.46 | V 1.43 | H 1.61 | P 0.769 | Q 2.54 | M 2.47 | F 1.47 | L 2.4 | I 1.46 | D 2.95 | R 1.47 | G 2.34 | A 2.75 | K 2.21 | T 1.75
E10: F 2.69 | I 2.58 | S 2.18 | W 2.93 | P 1.88 | D 2.76 | L 2.51 | V 2.58 | N 2.17 | T 2.04 | C 3.04 | H 2.5 | A 2.86 | R 2.28 | Q 2.67 | G 2.21 | M 2.59 | Y 2.71 | K 2.46
D7: V 2.51 | Q 2.54 | F 3.22 | T 2.76 | S 2.84 | W 3.19 | H 2.61 | L 2.87 | M 2.82 | P 2.58 | G 2.74 | K 2.52 | N 2.75 | Y 3.18 | I 2.46 | A 2.92 | E 2.78 | R 2.46
